In article PMC6284806 (Nanotechnology, 2015):

Molecular target: the molecule itself
Test: AUC

B1: Horse spleen apoferritin (natural protein, UniProt P02791 1-175, looked up)
chain: MSSQIRQNYSTEVEAAVNRLVNLYLRASYTYLSLGFYFDRDDVALEGVCHFFRELAEEKREGAERLLKMQNQRGGRALFQDLQKPSQDEWGTTLDAMKAAIVLEKSLNQALLDLHALGSAQADPHLCDFLESHFLDEEVKLIKKMGDHLTNIQRLVGSQAGLGEYLFERLTLKHD
With B1 the “stoichiometry N” value was 24.
